Laboratory results taken from publication PMC6718144, “Structure of the archaeal chemotaxis protein CheY in a domain-swapped dimeric conformation” (Acta Crystallographica. Section F, Structural Biology …, 2019).

Target: the molecule itself
Test: cross-linking; glutaraldehyde, incubation 1, 2, 5 and 10 min before quenching; Coomassie-stained SDS-PAGE

B1: CheF from Pyrococcus horikoshii (PhCheF), non-His-tagged (natural protein, P. horikoshii)
chain: MPIFEARVKVGISSSWVTSRKVSWRDAIAQIESDRIVVKYLKMGEVVGEDSFPFSALIDLGVRIPDELKLNPEKDHFGIKFYIPGRGELLVIFTIEENLLIYDEKKFSEFVHKVFEVLINGKTVMLQLARIIGGAVNMESKWEEGWLRVIKVKSARTQKTERSIVVIIKDKRPVSIFSDLEDIEIEEVDMNGKRVRAWKIRHFHIDQSVTSYLYIPDKQTQLYVLRYLLKYNPAIMEFIMKVSDDFPTLKSEFQEIMEKEIKELEALDEMEKQILVALYSGINPLELHQFLGVSEKEIEEIYDRMIDKGLLKIVMIRKIVDLTNEGRKIVNKLLKYGLVSM
notes: CheF, Pyrococcus horikoshii, ORF PH0494, UniProt O58230; also called PH0494; source: E. coli BL21 Gold (DE3); purified (heating to 80°C, SEC); as lysate supernatant in the pull-down
  stoichiometry N: 2
